Source: the RNAGym collection of RNA variant scans (doi:10.1073/pnas.2313332121)
This sample holds only a part of the variants without activity.

B1: TPR 5TU (parent)
chain: GGAUCUUCUCGAUCUAACAAAAAAGACAAAUCUGCCACAAAGCUUGAGAGCAUCUUCGGAUGCAGAGGCGGCAGCCUUCGGUGGCGCGAUAGCGCCAACGUUCUCAACUAUGACACGCAAAACGCGUGCUCCGUUGAAUGGAGUUUAUCAUG

Variants of: B1
Experiment: polymerase ribozyme fitness, log enrichment relative to wild type (log ratio); higher = more active; in vitro selection for triplet polymerase activity
In short: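 Mutant libraries were PCR-built and transcribed for each subunit of a heterodimeric triplet polymerase ribozyme and selected for one round in triplicate at −7 °C, frozen, before gel excision of extended constructs and streptavidin-bead capture. Input and output libraries were Illumina-sequenced, keeping genotypes with ≥10 input reads and ≥1 read per output. Fitness is a logarithmic ratio of genotype to wild-type enrichment, in base 2, using inverse-variance-weighted replicate averages.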

Row | Variant | polymerase ribozyme fitness (log ratio)
1 | GGAUCUUCUCGAUCGAACAAAAAAGACUAAUCUGCCACAAAGCUUGAGCGCAUCUUCGGAUGCAGCGGCGGCAGCCUUAGGUGGCGCGAUAGCGCCUACGUUCUCAACUAUGACACGCAAAACACGUGCUCCGUUGAAUGGAGUUUAUCAUG | ≤ -4.2
2 | GGAUCUUCUCGAUCCAACAAAAAAGACAAAUCUGCCACAAAGCUUGAGAGCAUUUUCGGAUGCAGAGGCGGCAGCCUUCGGUGGCGCGAUAGCGCCAACGUUCUCAACUAUGACACGCAAAACGCGUGCUCCGUUGAAUGGAGUUUAUCAUG | 0.268
3 | GGAUCUUCUCGAUCGAACAAAAAAGACAUAUCUGCCACAAAGCUUGAGAGCAUCUUCGGAUGCAGAGGCGGCAGGCUUCGGUGGCGGUAUAGCGCCAACGUUCUCAACUAUGACACGCGAAACGCGUGCUCCGUUGAAUGGAGUUUAUAAUG | ≤ -4.2
4 | GGAUCUUCUCGAUCGAACAAAAAAGACAAAUCUGCCAUAAAGCUUGAGAGCAUCUUCGGAUGCAGAGGCGGCAGCCUUCGGUGGCGCGAUAGCGCCAACGUUCUCAACUAUGACACGCAAAACGCGUGCUCCGUUGAAUGGAGUUUAUCAUG | -0.133
5 | GGAUCUUCUCGAUCCAACAAAAAAGACAAAUCUGCCACAAAGCUUGAGAGAAUCUUCGGUUGCAGAGGCGGCAGCCUUCGGUGGCGCGAUAGAGCGAACGUUCUCAACUAUGACACGCAAAACGCGUGCUCCGUUGAAUAGAGUUUAUCAUG | ≤ -4.2
6 | GGAUCUUCUCGAUCGAACAAAAAAGACAUAUCUGCCACAAAGCUUGAGAGCAUCUUCGGAUGCAGAGGCGGCAGCAUUCGGUAGCGCGAUAGCGCCAACGUUCUCAACUAUGACACGCAAAACGCGUGCUCCGUUGAAUGGAGUUUAUCAUG | ≤ -4.2
7 | GGAUCUUCUCGAUCGAAAAAAAAAGACAAAUCUGCCACAAAGCUUGAGAGCAUAUUCGGAUGCAGAGGCGGCAGCCUUCGGUGGCGCGAUAGCACCAACGUUCUCAACUAUGACACCCAAAACGAGUGCUCCGUUGAAUGGAGUUUAUCAUG | -1.44
8 | GGAUCUUCUCGAUCGUACAAAAAAGACAAAUCUGCCACAAAGCUUGAGAGCAUCUUCGGAUGCAGAGGCGGCAGCCUUCGGUGGCGCGAUAGCGUCAACGUUCUCAACUAUGACACGCAAUACGCGUGCGCCGUUGAAUGGAGUUUAUCAUG | ≤ -4.2
9 | GGAUCUUCUCGAUCCAACAAAAAAGACAAAUCUGCCACAAAGCUUGAGAGCAUCUUCGGAUGCAGAGGCGGCAGCCUUCGGUGGUGCGAUAUCGCCAACGUUCUCAACUAUGACACGCAAAACGCGUGCUCCGUUGAAUGCAGCUUAUCAUG | -3.03
10 | GGAUCUUCUCGAUCCAACAAAAAAGACAAAUCUGCCACAAAGCUUGAGACCAUCUUCGGAUGCAGAGGCGGCAGCCUUCGGUGGCGCGAUAGCGCCAACGGUCUUAACUAUGACACGCAAAACGCGUGCUCCGUUGAAUGGAGUUUAUCAUG | -1.68
11 | GGAUCUUCUCGAUCGAACAAAAAAGACAAAUCUGCCACAAAGUUUGAGAGCAUCUUAGGAUGCAGAGGCGGCAGCCUUCGGUGGGGCGAUAGCGCCAACGUUCUCCACUAUGACACGCAAAACGCGUGCUCCGUUGAAUGGAGUUUAUCAUG | ≤ -4.2
12 | GGAUCUUCUCGAUCCAACAAAAAAGACAAAUCUGCCACAAAGCCUGAGAGCAUCUUCGGAAGCAGAGGCUGCAGCCUUCAGUGGCGCGAUAGCGCUAACGUUCUCAACUAUGACACGCAAAACGCGUGCUCCGUUGAAUGGAGUUUAUCAUG | ≤ -4.2
13 | GGAUCUUCUCGAUCCAACAAAAAAGACAAAUCUGCCAUAAAGCUUGAGAGCAUCUUCGGAUGCAGAGGCGGCAGCCUUCGGUGGCAUGAUAGCGCCAAUGUUCUCAACUAUGACACGCAAAACGCGUGCUCCGUUGAAUGGAGUUUAUCAUG | -3.87
14 | GGAUCUUCUCGAUCCAACAAAAAAGACAAAUCUGCCACAAAGCUUGAGAGCAUCUUCGGAUGCAGAGGCGGCAGCCUUCGGUGGUGCGAUAGCGCCAACGUUCUCAACUAUGACACGCAAAACGCGUGCUCCGUUGAAUGGAGUUUAUCAUG | -0.718
15 | GGAUCUUCUCGAUCCAACAAAAAAGACAAAUCUGCCACAAAGCUUGAGAGCAUCUUCGGAUGCAGAGGCGGCAGCCUUCGGUGGCGCGAUAGCGCCAAGGUUCUCAACUAUGACACGCAAAACGCGUGCUCCGUUGAAUGGAGUUUAUCAUG | -0.377
16 | GGAUCUUCUCGAUCGAACAAAAAAGACAAAUCUGCCACAAAGCUUGAGAGCAUCUUCGGAUGCAGAGGCGGCAGCCUUCGGUGGCGCGAUAGCGCCAACGUUCUCAACUAUGACACGCAAAGCGCGUGCUCCGUUGAAUGGAGUUUAUCAUG | -1.2
17 | GGAUCUUCUCGAUCGUACAAAAAAGACAAAUCUGCCACAAAGCUUGAGAGCAUCUUCGGAUGCAGAGGCGGCAGCCUUCGGUGGUGCGAUAGCGCCAACGUUCUCAACUAUGACACGUAAAACGCGUGCUCCGUUGAAUGGAGUUUAUCAUG | -1.42
18 | GGAUCUUCUCGAUCCAACAAAAAAGACAAAUCUGCCACAAAGCUUGAGAGCAUCUUCGGAUGCAGAGGCGGCAGCCUUCGGUGGCGCAAUAGCGCCAACGUUCUCAACUAUGACACGCAAAACGCGUGCUCCGUUGAAUGGAGUUUAUCAUG | -3.6
19 | GGAUCUUCUCGAUCGAACAAAAAAGACAAAUCUGCCUCAAAGCUUGAGAGCCUCUUCGGAUGCAGAGGCGGCAGCCUUCGGUGGCGCGACAGCGCCAACGUUCUCAACUAUGACACGCAAAACGCGUGCUCCGUUGAAUGGAGUUUAGCAUG | ≤ -4.2
